According to article PMC7547085, “Specific and direct modulation of the interaction between adhesion GPCR GPR56/ADGRG1 and tissue transglutaminase 2 using synthetic ligands” (Scientific Reports, 2020):
Residue numbers refer to the chain shown, from its start. Each block holds one molecule with its values, some of them ahead of it.

Legend:
[1] = target: mouse tissue transglutaminase 2 C-terminal D3D4 domains (mTG2 D3D4) (mouse) (UniProt P21981); experiment: bead-binding assay read by flow cytometry; titration of monomeric biotinylated GPR56 fragments on TG2 D3D4-coated M280 beads; detected with neutravidin-650; one-to-one binding fit; apparent KD
[2] = target: T1, mouse tissue transglutaminase 2 C-terminal D3D4 domains (mTG2 D3D4) (mouse, UniProt P21981 471-686, biotin on the AVI-tag); experiment: FACS
T1 chain: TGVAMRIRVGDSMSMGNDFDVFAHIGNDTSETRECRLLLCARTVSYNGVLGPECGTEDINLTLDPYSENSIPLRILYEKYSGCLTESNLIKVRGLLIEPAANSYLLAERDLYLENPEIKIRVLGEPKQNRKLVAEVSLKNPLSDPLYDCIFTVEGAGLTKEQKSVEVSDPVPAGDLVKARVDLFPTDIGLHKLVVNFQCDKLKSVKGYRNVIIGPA

[3] = target: T2, mouse tissue transglutaminase 2 C-terminal D3D4 domains (mTG2 D3D4) (mouse, UniProt P21981 471-686, biotin on the AVI-tag); experiment: bead-binding assay read by flow cytometry; titration of monomeric biotinylated GPR56 fragments on TG2 D3D4-coated M280 beads; detected with neutravidin-650; one-to-one binding fit; apparent KD; conditions: both partners purified
T2 construct: tissue transglutaminase 2 (TG2), mouse, domains D3 and D4, residues T471-A686; Used on M280 beads, or tetramerized with neutravidin-650 to stain cells; not shown: AVI-tag, N-terminal, kept
T2 sequence (looked up): T1 chain

Molecule: human GPR56 ECR H89A (domain or fragment)
Kd [1]: 790 nM

B1: mouse GPR56 ECR S150A (domain or fragment)
chain: GSPREDFRFCGQRNQTQQSTLHYDQSSEPHIFVWNTEETLTIRAPFLAAPDIPRFFPEPRGLYHFCLYWSRHTGRLHLRYGKHDYLLSSQASRLLCFQKQEQSLKQGAPLIATSVSSWQIPQNTALPGAPSFIFSFHNAPHKVSHNASVDMCDLKKELQQLSRYLQHPQKAAKRPTAAFISQQLQSLESKLTSVSFLGDTLSFEEDRVNATVWKLPPTAGLEDLHIHSQKEEEQSEVQAYSLLLPRAVFQQTRGRRRDDAKRLLVVDFSSQALFQDKNSSQVLGEKVLGIVVQNTKVTNLSDPVVLTFQHQPQPKNVTLQCVFWVEDPASSSTGSWSSAGCETVSRDTQTSCLCNHLTYFAVLMVSSTEVEATHKHY
modifications: biotin on the AVI-tag
Kd [2]: 11 nM | fold increase in affinity against wild type [1]: 40 fold

B2: human GPR56/ADGRG1 extracellular region (ECR), wild type (domain or fragment)
chain: RGHREDFRFCSQRNQTHRSSLHYKPTPDLRISIENSEEALTVHAPFPAAHPASRSFPDPRGLYHFCLYWNRHAGRLHLLYGKRDFLLSDKASSLLCFQHQEESLAQGPPLLATSVTSWWSPQNISLPSAASFTFSFHSPPHTAAHNASVDMCELKRDLQLLSQFLKHPQKASRRPSAAPASQQLQSLESKLTSVRFMGDMVSFEEDRINATVWKLQPTAGLQDLHIHSRQEEEQSEIMEYSVLLPRTLFQRTKGRSGEAEKRLLLVDFSSQALFQDKNSSQVLGEKVLGIVVQNTKVANLTEPVVLTFQHQLQPKNVTLQCVFWVEDPTLSSPGHWSSAGCETVRRETQTSCFCNHLTYFAVLMVSSVEVDAVHKH
modifications: biotin on the AVI-tag
Kd [3]: 330 ± 15 nM

Second part, the molecule after the results:

Kd [3]: 440 ± 20 nM
B3: mouse GPR56/ADGRG1 extracellular region (ECR), wild type (domain or fragment)
chain: PREDFRFCGQRNQTQQSTLHYDQSSEPHIFVWNTEETLTIRAPFLAAPDIPRFFPEPRGLYHFCLYWSRHTGRLHLRYGKHDYLLSSQASRLLCFQKQEQSLKQGAPLIATSVSSWQIPQNTSLPGAPSFIFSFHNAPHKVSHNASVDMCDLKKELQQLSRYLQHPQKAAKRPTAAFISQQLQSLESKLTSVSFLGDTLSFEEDRVNATVWKLPPTAGLEDLHIHSQKEEEQSEVQAYSLLLPRAVFQQTRGRRRDDAKRLLVVDFSSQALFQDKNSSQVLGEKVLGIVVQNTKVTNLSDPVVLTFQHQPQPKNVTLQCVFWVEDPASSSTGSWSSAGCETVSRDTQTSCLCNHLTYFAVLMVS
modifications: biotin on the AVI-tag

Kd [3]: 880 ± 80 nM
B4: mouse GPR56 ECR H89A (domain or fragment)
chain: B3 chain with H62A
modifications: biotin on the AVI-tag
